Measurements: the supplement of paper PMC5998384

Assays:
[1] = system: HeLa Kyoto; test: solubility in G1/S (NP-40 vs SDS abundance) (log2 ratio); higher = more soluble; conditions: cell cycle stage: G1/S
[2] = system: HeLa Kyoto; test: melting temperature (median over replicates), in situ; higher = more thermally stable
[3] = system: HeLa Kyoto; test: solubility change mitosis vs G1/S (difference of NP-40 vs SDS log2 ratios) (log2 ratio difference); higher = more soluble in mitosis
[4] = system: HeLa Kyoto; test: thermal stability score vs G1/S (z-score of summed log2 fold changes over temperatures); higher = more thermally stable than in G1/S
[5] = cell cycle stage: early G1 (4.5 h after nocodazole release)
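For melting temperature (median over replicates), in situ in this document: HeLa Kyoto cells synchronized by double thymidine or nocodazole block, proteins quantified by TMT10plex mass spectrometry, three independent biological replicates.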
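For solubility change mitosis vs G1/S (difference of NP-40 vs SDS log2 ratios) in this document: synchronized HeLa Kyoto cells (double thymidine block for G1/S, nocodazole release for mitosis), protein amounts in NP-40 versus SDS lysates quantified by mass spectrometry, three biological replicates.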
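For solubility in G1/S (NP-40 vs SDS abundance) in this document: HeLa Kyoto cells arrested at G1/S by double thymidine block, proteins quantified by TMT10plex mass spectrometry in mild NP-40 versus SDS extracts, three biological replicates.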
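For thermal stability score vs G1/S (z-score of summed log2 fold changes over temperatures) in this document: synchronized HeLa Kyoto cells, proteins quantified by TMT10plex mass spectrometry, three biological replicates, mitosis taken 0.5 h after nocodazole release, G1/S directly after double thymidine block.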

| Sequence | solubility in G1/S (log2) [1] | melting temperature ([2]; cell cycle stage: G1/S) [°C] | melting temperature ([2]; cell cycle stage: mitosis) [°C] | solubility change mitosis (log2) [3] | thermal stability score [4, 5] | thermal stability score ([4]; cell cycle stage: mitosis) |
| --- | --- | --- | --- | --- | --- | --- |
| MGDAADPREMRKTFIVPAIKPFDHYDFSRAKIACNLAWLVAKAFGTENVPEELQEPFYTDQYDQEHIKPPVVNLLLSAELYCRAGSLILKSDAAKPLLGHDAVIQALAQKGLYVTDQEKLVTERDLHKKPIQMSAHLAMIDTLMMAYTVEMVSIEKVIACAQQYSAFFQATDLPYDIEDAVMYWINKVNEHLKDIMEQEQKLKEHHTVEAPGGQKSPSKWFWKLVPARYRKEQTLLKQLPCIPLVENLLKDGTDGCALAALIHFYCPDVVRLEDICLKETMSLADSLYNLQLIQEFCQEYLNQCCHFTLEDMLYAASSIKSNYLVFMAELFWWFEVVKPSFVQPRVVRPQGAEPVKDMPSIPVLNAAKRNVLDSSSDFPSSGEGATFTQSHHHLPSRYSRPQAHSSASGGIRRSSSMSYVDGFIGTWPKEKRSSVHGVSFDISFDKEDSVQRSTPNRGITRSISNEGLTLNNSHVSKHIRKNLSFKPINGEEEAESIEEELNIDSHSDLKSCVPLNTNELNSNENIHYKLPNGALQNRILLDEFGNQIETPSIEEALQIIHDTEKSPHTPQPDQIANGFFLHSQEMSILNSNIKLNQSSPDNVTDTKGALSPITDNTEVDTGIHVPSEDIPETMDEDSSLRDYTVSLDSDMDDASKFLQDYDIRTGNTREALSPCPSTVSTKSQPGSSASSSSGVKMTSFAEQKFRKLNHTDGKSSGSSSQKTTPEGSELNIPHVVAWAQIPEETGLPQGRDTTQLLASEMVHLRMKLEEKRRAIEAQKKKMEAAFTKQRQKMGRTAFLTVVKKKGDGISPLREEAAGAEDEKVYTDRAKEKESQKTDGQRSKSLADIKESMENPQAKWLKSPTTPIDPEKQWNLASPSEETLNEGEILEYTKSIEKLNSSLHFLQQEMQRLSLQQEMLMQMREQQSWVISPPQPSPQKQIRDFKPSKQAGLSSAIAPFSSDSPRPTHPSPQSSNRKSASFSVKSQRTPRPNELKITPLNRTLTPPRSVDSLPRLRRFSPSQVPIQTRSFVCFGDDGEPQLKESKPKEEVKKEELESKGTLEQRGHNPEEKEIKPFESTVSEVLSLPVTETVCLTPNEDQLNQPTEPPPKPVFPPTAPKNVNLIEVSLSDLKPPEKADVPVEKYDGESDKEQFDDDQKVCCGFFFKDDQKAENDMAMKRAALLEKRLRREKETQLRKQQLEAEMEHKKEETRRKTEEERQKKEDERARREFIRQEYMRRKQLKLMEDMDTVIKPRPQVVKQKKQRPKSIHRDHIESPKTPIKGPPVSSLSLASLNTGDNESVHSGKRTPRSESVEGFLSPSRCGSRNGEKDWENASTTSSVASGTEYTGPKLYKEPSAKSNKHIIQNALAHCCLAGKVNEGQKKKILEEMEKSDANNFLILFRDSGCQFRSLYTYCPETEEINKLTGIGPKSITKKMIEGLYKYNSDRKQFSHIPAKTLSASVDAITIHSHLWQTKRPVTPKKLLPTKA [CAMSAP2] | 0.00851 | 51.7 | 53 | -0.0823 | 1.04 | 2.88 |
| MATSRYEPVAEIGVGAYGTVYKARDPHSGHFVALKSVRVPNGGGGGGGLPISTVREVALLRRLEAFEHPNVVRLMDVCATSRTDREIKVTLVFEHVDQDLRTYLDKAPPPGLPAETIKDLMRQFLRGLDFLHANCIVHRDLKPENILVTSGGTVKLADFGLARIYSYQMALTPVVVTLWYRAPEVLLQSTYATPVDMWSVGCIFAEMFRRKPLFCGNSEADQLGKIFDLIGLPPEDDWPRDVSLPRGAFPPRGPRPVQSVVPEMEESGAQLLLEMLTFNPHKRISAFRALQHSYLHKDEGNPE [CDK4] | 0.218 | 52.7 | 52.4 | -0.121 | 0.0522 | -0.366 |
| MRGVWPPPVSALLSALGMSTYKRATLDEEDLVDSLSEGDAYPNGLQVNFHSPRSGQRCWAARTQVEKRLVVLVVLLAAGLVACLAALGIQYQTRSPSVCLSEACVSVTSSILSSMDPTVDPCHDFFSYACGGWIKANPVPDGHSRWGTFSNLWEHNQAIIKHLLENSTASVSEAERKAQVYYRACMNETRIEELRAKPLMELIERLGGWNITGPWAKDNFQDTLQVVTAHYRTSPFFSVYVSADSKNSNSNVIQVDQSGLGLPSRDYYLNKTENEKVLTGYLNYMVQLGKLLGGGDEEAIRPQMQQILDFETALANITIPQEKRRDEELIYHKVTAAELQTLAPAINWLPFLNTIFYPVEINESEPIVVYDKEYLEQISTLINTTDRCLLNNYMIWNLVRKTSSFLDQRFQDADEKFMEVMYGTKKTCLPRWKFCVSDTENNLGFALGPMFVKATFAEDSKSIATEIILEIKKAFEESLSTLKWMDEETRKSAKEKADAIYNMIGYPNFIMDPKELDKVFNDYTAVPDLYFENAMRFFNFSWRVTADQLRKAPNRDQWSMTPPMVNAYYSPTKNEIVFPAGILQAPFYTRSSPKALNFGGIGVVVGHELTHAFDDQGREYDKDGNLRPWWKNSSVEAFKRQTECMVEQYSNYSVNGEPVNGRHTLGENIADNGGLKAAYRAYQNWVKKNGAEHSLPTLGLTNNQLFFLGFAQVWCSVRTPESSHEGLITDPHSPSRFRVIGSLSNSKEFSEHFRCPPGSPMNPPHKCEVW [ECE1] | 0.243 | 56.1 | 55.2 | -0.00992 | -1.05 | -0.159 |
| MAQRHSDSSLEEKLLGHRFHSELRLDAGGNPASGLPMVRGSPRVRDDAAFQPQVPAPPQPRPPGHEEPWPIVLSTESPAALKLGTQQLIPKSLAVASKAKTPARHQSFGAAVLSREAARRDPKLLPAPSFSLDDMDVDKDPGGMLRRNLRNQSYRAAMKGLGKPGGQGDAIQLSPKLQALAEEPSQPHTRSPAKNKKTLGRKRGHKGSFKDDPQLYQEIQERGLNTSQESDDDILDESSSPEGTQKVDATIVVKSYRPAQVTWSQLPEVVELGILDQLSTEERKRQEAMFEILTSEFSYQHSLSILVEEFLQSKELRATVTQMEHHHLFSNILDVLGASQRFFEDLEQRHKAQVLVEDISDILEEHAEKHFHPYIAYCSNEVYQQRTLQKLISSNAAFREALREIERRPACGGLPMLSFLILPMQRVTRLPLLMDTLCLKTQGHSERYKAASRALKAISKLVRQCNEGAHRMERMEQMYTLHTQLDFSKVKSLPLISASRWLLKRGELFLVEETGLFRKIASRPTCYLFLFNDVLVVTKKKSEESYMVQDYAQMNHIQVEKIEPSELPLPGGGNRSSSVPHPFQVTLLRNSEGRQEQLLLSSDSASDRARWIVALTHSERQWQGLSSKGDLPQVEITKAFFAKQADEVTLQQADVVLVLQQEDGWLYGERLRDGETGWFPEDFARFITSRVAVEGNVRRMERLRVETDV [ARHGEF16] | -0.0605 | 49.4 | 49.5 | -0.0697 | 0.0138 | 0.41 |
| MSSFSESALEKKLSELSNSQQSVQTLSLWLIHHRKHAGPIVSVWHRELRKAKSNRKLTFLYLANDVIQNSKRKGPEFTREFESVLVDAFSHVAREADEGCKKPLERLLNIWQERSVYGGEFIQQLKLSMEDSKSPPPKATEEKKSLKRTFQQIQEEEDDDYPGSYSPQDPSAGPLLTEELIKALQDLENAASGDATVRQKIASLPQEVQDVSLLEKITDKEAAERLSKTVDEACLLLAEYNGRLAAELEDRRQLARMLVEYTQNQKDVLSEKEKKLEEYKQKLARVTQVRKELKSHIQSLPDLSLLPNVTGGLAPLPSAGDLFSTD [RPRD1B] | 0.562 | 49.5 | 50 | 0.00357 | -0.302 | 0.484 |
| MSCINLPTVLPGSPSKTRGQIQVILGPMFSGKSTELMRRVRRFQIAQYKCLVIKYAKDTRYSSSFCTHDRNTMEALPACLLRDVAQEALGVAVIGIDEGQFFPDIVEFCEAMANAGKTVIVAALDGTFQRKPFGAILNLVPLAESVVKLTAVCMECFREAAYTKRLGTEKEVEVIGGADKYHSVCRLCYFKKASGQPAGPDNKENCPVPGKPGEAVAARKLFAPQQILQCSPAN [TK1] | 0.28 | 56.1 | 57.3 | -0.138 | -4.01 | -1.09 |
